Values joined by “and” are separate entries in the source; they are usually repeats but may differ in a detail not shown here. Equal entries are not always repeated.

Broadly, the stoichiometry N is a count of units in the complex or per binding partner. By Kd is commonly meant the equilibrium constant for the complex coming apart.

Data set [1] concerns the molecule itself. Description: cryo-EM structure; full-length MgtE-Fab705 complex in PMAL-C8 amphipol, no Mg2+ or other divalent cations; 3.7 Å, C2 symmetry imposed.
Data set [2] concerns the molecule itself. Description: cross-linking; disulfide cross-linking with Cu2+ bis-1,10-phenanthroline, 0.5 mg/ml MgtE mutant in 20 mM HEPES pH 7.0, 150 mM NaCl, 0.05% DDM, MgCl2 gradient (0.01 to 30 mM), 4°C, non-reducing SDS-PAGE.
In data set [3] the target is T1, full-length MgtE from Thermus thermophilus (Thermus thermophilus HB8 (ATCC 27634 / …, UniProt Q5SMG8)).
T1 construct: Mg2+ channel MgtE, Thermus thermophilus, full length; homodimer; In DDM micelles for ITC; source: E. coli C41 (DE3), purified (DDM solubilisation, Ni-NTA, HRV3C cleavage, SEC); not shown: His6, N-terminal, cleaved
The data set can be described thus: ITC; Fab705 (25 uM) injected into the cell with full-length MgtE (about 2.5 uM monomer); 25°C; 20 mM HEPES pH 7.0, 150 mM NaCl, 0.05% DDM, 0 mM MgCl2; three repeats listed one by one. The following applies: both partners purified.

In data set [4] the target is T2, full-length Thermus thermophilus MgtE (Thermus thermophilus, UniProt Q5SMG8).
T2 construct: MgtE Mg2+ channel, Thermus thermophilus, full-length gene in a pET28a-derived vector with an N-terminal hexahistidine tag and an HRV3C site; the cryo-EM model holds only residues 271 to 448 (TM domain); Homodimer; also called wild-type MgtE; WT MgtE; source: E. coli C41 (DE3), purified (Ni-NTA, SEC) in DDM; for cryo-EM reconstituted in PMAL-C8 amphipol; not shown: His6, N-terminal, cleaved
The data set can be described thus: ITC; Fab705 (25 uM) injected into full-length MgtE (about 2.5 uM monomer) in the cell; 25°C; 20 mM HEPES pH 7.0, 150 mM NaCl, 0.05% DDM, 0 mM MgCl2. The following applies: both partners purified. In general terms: In ITC the heat of successive injections is recorded.

B1: full-length Thermus thermophilus MgtE (natural protein, UniProt Q5SMG8 1-450, looked up)
chain: MEEKLAVSLQEALQEGDTRALREVLEEIHPQDLLALWDELKGEHRYVVLTLLPKAKAAEVLSHLSPEEQAEYLKTLPPWRLREILEELSLDDLADALQAVRKEDPAYFQRLKDLLDPRTRAEVEALARYEEDEAGGLMTPEYVAVREGMTVEEVLRFLRRAAPDAETIYYIYVVDEKGRLKGVLSLRDLIVADPRTRVAEIMNPKVVYVRTDTDQEEVARLMADYDFTVLPVVDEEGRLVGIVTVDDVLDVLEAEATEDIHKLGAVDVPDLVYSEAGPVALWLARVRWLVILILTGMVTSSILQGFESVLEAVTALAFYVPVLLGTGGNTGNQSATLIIRALATRDLDLRDWRRVFLKEMGVGLLLGLTLSFLLVGKVYWDGHPLLLPVVGVSLVLIVFFANLVGAMLPFLLRRLGVDPALVSNPLVATLSDVTGLLIYLSVARLLLEAV
notes: MgtE Mg2+ channel, Thermus thermophilus, full-length gene in a pET28a-derived vector with an N-terminal hexahistidine tag and an HRV3C site; the cryo-EM model holds only residues 271 to 448 (TM domain); Homodimer; also called wild-type MgtE; WT MgtE; source: E. coli C41 (DE3), purified (Ni-NTA, SEC) in DDM; for cryo-EM reconstituted in PMAL-C8 amphipol; not shown: His6, N-terminal, cleaved
With B1, the “stoichiometry N” value in data set [1] turned out to be 2.

B2: MgtE double cysteine mutant T336C/L421C (natural protein, Thermus thermophilus, UniProt Q5SMG8 1-450, looked up)
chain: MEEKLAVSLQEALQEGDTRALREVLEEIHPQDLLALWDELKGEHRYVVLTLLPKAKAAEVLSHLSPEEQAEYLKTLPPWRLREILEELSLDDLADALQAVRKEDPAYFQRLKDLLDPRTRAEVEALARYEEDEAGGLMTPEYVAVREGMTVEEVLRFLRRAAPDAETIYYIYVVDEKGRLKGVLSLRDLIVADPRTRVAEIMNPKVVYVRTDTDQEEVARLMADYDFTVLPVVDEEGRLVGIVTVDDVLDVLEAEATEDIHKLGAVDVPDLVYSEAGPVALWLARVRWLVILILTGMVTSSILQGFESVLEAVTALAFYVPVLLGTGGNTGNQSACLIIRALATRDLDLRDWRRVFLKEMGVGLLLGLTLSFLLVGKVYWDGHPLLLPVVGVSLVLIVFFANLVGAMLPFLLRRLGVDPACVSNPLVATLSDVTGLLIYLSVARLLLEAV
notes: MgtE Mg2+ channel, Thermus thermophilus, with two cysteine substitutions; wild-type MgtE has no endogenous cysteine; source: E. coli C41 (DE3), purified as the wild type, with 20 mM DTT added before its removal by SEC; not shown: His6, N-terminal, cleaved
With B2, the binding result in data set [2] was “binds”.

B3: Fab705 (Fab, V domains shown)
VH: EVKLQESGVELVKPGASVKISCKASGYSFTGYNMNWVKQSHGKSLEWIGNISPYYGTSIYNQNFKGKATLTVDRSSSTAYMQLNSLTSEDSAVYYCARGESFSNYEGYYAMDYWGQGTSVIVSS
VL: DVLMTQTPLSLPVSLGDQASISCRSSQSLVHSDGNTYLHWYLQKPGQSPKLLIYKVSNRFSGVPDRFSGSGSGTDFTLKISRVEAEDLGVYFCSQSTHVPWTFGGGTKLEIK
notes: heavy chain of Fab YN0705; in the deposited MgtE-Fab structure PDB 6LBH; light chain of Fab YN0705; Fab made by papain digestion of the mouse monoclonal IgG YN0705 raised against MgtE proteoliposomes; also called Fab YN0705; Fab antibody fragment Fab705; source: mouse hybridoma culture supernatant; IgG purified by protein G, digested with papain, Fab isolated by gel filtration and protein A …
For B3, in data set [3], the Kd is 187 nM and 164 nM; the “stoichiometry N” value is 0.89 and 0.9 and 0.83.

B4: Fab antibody fragment Fab705 (Fab, V domains shown)
VH: EVKLQESGVELVKPGASVKISCKASGYSFTGYNMNWVKQSHGKSLEWIGNISPYYGTSIYNQNFKGKATLTVDRSSSTAYMQLNSLTSEDSAVYYCARGESFSNYEGYYAMDYWGQGTSVIVSS
VL: DVLMTQTPLSLPVSLGDQASISCRSSQSLVHSDGNTYLHWYLQKPGQSPKLLIYKVSNRFSGVPDRFSGSGSGTDFTLKISRVEAEDLGVYFCSQSTHVPWTFGGGTKLEIK
notes: heavy chain of the mouse Fab YN0705; light chain of the mouse Fab YN0705; Fab made by papain digestion of the mouse monoclonal IgG YN0705 raised against MgtE proteoliposomes; also called Fab YN0705; YN0705; source: mouse hybridoma culture supernatant; IgG purified by protein G, digested with papain, Fab isolated by gel filtration and protein A chromatography
As for B4, binding in data set [4] was put at a Kd of 216 ± 52.7 nM.
